The values below come from patent publication JP2023053786A (dated 2023).

The target in assay [1] is T1, HBs抗原(Prosec Tany Technology Ltd. HBS 875), biotinylated (Hepatitis B virus (adr型), UniProt P03140 175-400, biotinylated with EZ-Link NHS-PEG4-biotin (sites not given)).
T1 construct: also called ビオチン化HBs抗原; adr型HBs抗原(PROSPEC社製)
T1 chain: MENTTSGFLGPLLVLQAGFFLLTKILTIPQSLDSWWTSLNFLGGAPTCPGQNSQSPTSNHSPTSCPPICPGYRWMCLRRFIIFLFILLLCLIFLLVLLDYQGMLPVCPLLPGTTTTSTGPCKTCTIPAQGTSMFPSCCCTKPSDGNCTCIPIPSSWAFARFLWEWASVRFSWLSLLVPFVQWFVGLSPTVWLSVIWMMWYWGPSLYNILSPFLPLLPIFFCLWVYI
The assay can be described thus: BLI (Octet RED96e), biotinylated HBs antigen on streptavidin sensor, antibody in solution.

For assay [2], the target named is T1, HBs抗原(Prosec Tany Technology Ltd. HBS …. The experiment in a line: BLI (Octet), as in Example 3: biotinylated HBs antigen on streptavidin sensor.

B1: クローンHB1170 (mouse monoclonal HBs antigen-binding antibody) (antibody, V domains shown)
VH: QIQLVQSGPELKKPGETVKISCKASGYTFTDFSMHWVKQAPGKGLKWMGWIDTETGEPTNADDFKGRFVFSLETSASAAYLQIHNLKNDDTATYFCARKDYELGTWFVYWGQGTLVTVST
VL: DIQMTQTTSSLSASLGDRVTISCRASQDISNFLNWYQQKPDGTVKLLIYYTSRLHSGVPSRFSGSGSGTDYSLTISNLEQEDFATYFCQQGKTLPRTFGGGTILEIK
notes: Mouse hybridoma antibody; also called HB1170; HB1170クローン
B1 yielded a dissociation constant Kd in assay [1] of approximately 3 nM.

B2: クローンHB351 (mouse monoclonal HBs antigen-binding antibody) (antibody, V domains shown)
VH: EIQLQQSGAELVKPGASVKLSCTASGFNIKDTYMYWVKQRPEQGLEWIGRIDPANGDTKYDPNFQGKATITADPSSNTAYLQLTSLTSEDTAVYYCARDDYDGAMDYWGRGTSVTVSS
VL: QIVLTQSPAIMSASPGERVTMTCSASSTVNYMYWYQQKPGSSPRLLNFDTSNLASGVPVRFSGSGSGTSYSLTISRMEAEDAATYYCQRWSTYPPITFGSGTKLEIK
notes: Mouse hybridoma antibody; The 91/92 assignment follows the order HB351, HB1170, HB1215 = (1), (2), (3); also called HB351; クローン351
In assay [1], B2 displayed a Kd of approximately 0.3 nM.

B3: ヒト化HB351 (antibody, V domains shown)
VH: EVQLVQSGAEVKKPGATVKISCKVSGFNIKDTYMYWVQQAPGKGLEWIGRIDPANGDTKYDPNFQGRVTITADTSTDTAYMELSSLRSEDTAVYYCARDDYDGAMDYWGQGTLVTVSS
VL: EIVLTQSPATLSLSPGERATLSCSASSTVNYMYWYQQKPGQAPRLLNFDTSNLASGIPARFSGSGSGTDFTLTISSLEPEDFAVYYCQRWSTYPPITFGQGTKLEIK
notes: also called humanized HB351; ヒト化したモノクローナル抗体HB351
In assay [2], B3 showed a Kd of approximately 0.3 nM.

B4: ヒト化HB1170 (antibody, V domains shown)
VH: QVQLVQSGSELKKPGASVKVSCKASGYTFTDFSMHWVRQAPGQGLKWMGWIDTETGEPTNADDFKGRFVFSLDTSVSTAYLQISSLKAEDTAVYYCARKDYELGTWFVYWGQGTTVTVSS
VL: DIQMTQSPSSLSASVGDRVTITCRASQDISNFLNWYQQKPGKAPKLLIYYTSRLHSGVPSRFSGSGSGTDYTLTISSLQPEDFATYYCQQGKTLPRTFGGGTKVEIK
notes: also called humanized HB1170; ヒト化したモノクローナル抗体HB1170
Molecule B4 registered a Kd in assay [2] of approximately 3 nM.

B5: クローンHB1215 (mouse monoclonal HBs antigen-binding antibody) (antibody, V domains shown)
VH: QVQLKQSGPGLVQPSQSLSLTCTVSGFSLATYGVQWVRQSPGKGLEWLGVIWRGGNTDYNAAFMSRLSITKDNSKSQVFFKMNSLQGDDTAIYYCAKATYFDVWGAGTTVTVSS
VL: QAVVTQESALTTSPGETVTLTCRSSTGAVTTSNFANWVQEKPDHLFTGLIGDTNNRAPGVPARFSGSLIGDKAALTITGAQTEDEAIYFCALWYNNWVFGGGTKLTVL
notes: Mouse hybridoma antibody; also called HB1215; HB1215クローン
Regarding B5, in assay [1], the Kd is approximately 0.3 nM.
